Assays:
purified protein [1] = substrate: CC(C)C[C@H](N)C(=O)Nc1ccc([N+](=O)[O-])cc1; assay: purified protein; assay type: biochemical, Synechococcus elongatus; details: pH 7.5, 50 mM Tris-HCl, 0.2 mM MnCl2, 37 °C, 5 µg/mL enzyme
purified protein [2] = substrate: N[C@@H](CS)C(=O)NCC(=O)O; assay: purified protein; assay type: biochemical, Synechococcus elongatus; details: pH 7.5, 50 mM Tris-HCl, 0.2 mM MnCl2, 37 °C, 5 µg/mL enzyme

B1: SynPCC7942_1190 (LAP, leucyl aminopeptidase) (Synechococcus elongatus PCC 7942 = FACHB-805) (protein)
chain: MTFQAIATHPQDWTGDTLALGLTTAAIGETLSSELQKLDQQWNGVLQELISDSEFKAKLAETTTTRIGGSIRKLILVGLGESPTTEDYRRAAAAVAKQARSFKSQTLAIAFPPSDDPAAIASAIVEGISLALYKDQRFKSEPDTASGPSSIELLGLAGQEAAIARAEQVVAGVELARQLVAAPANVVTPVTMADTAQELAAELGLELEILEADECEKRGMGAFLGVAKASDLPPKFIHLTYRPESTPRRKLAIVGKGLTFDSGGYNIKGAGSGIEMMKTDMGGAAATLGAAKAIGLIKPDVEVHFISAVTENMISGRGMHPGDILTASNGKTIEVNNTDAEGRLTLADALVFADGLGVDAIVDLATLTGACIIALGDDIAGLWSPSDDLAEQLLQAGKAAGEKLWRLPLEEPYLDGLKSPVADYKNTGPRAGGSITAALFLKQFVKHPVWAHLDVAGPVWSDKEKHYNPAGATGYGVRTLVNWVLS
notes: full-length gene in pET-28b(+) (pAM5836), Strep-tag (text: N terminus)
For B1, the Km (purified protein [1]) was 7.44 mM and the Km (purified protein [2]) was 1.21 mM.

From PMC9659335, “An unexpected role for leucyl aminopeptidase in UV tolerance revealed by a genome-wide fitness assessment in a model cyanobacterium” (Proceedings of the National Academy of Sciences of the …, 2022)
